Results taken from a protein production outcome set (Wang et al. 2014).

Experiment: label from the status in PepcDB records

Row | Sequence | protein production
1 | MNKKILLIGGGGHCKSVLDSLLDLDEYDDIGIIDTKENVGKAVLGTPILGYDRDLPSLYKDGYHYAFVAVGSIGNPSVRIRLFNTLCEMGFIIPNIVDASAKVSKHSQIDKGVFIGKHVVVNAGAVIGQGAIINSGAIVEHDCEIGEFVHIAPGTVLCGGVKIGRHSHIGTNSTVKQGIHIGSNCLIGMGSVVTKNIRDNVIAYGNPCREVKNLLEHHHHHH | failed
2 | MPSKQDVLLLDYWDQWAEAYRINGKSINTVYRYKLFRKHLKSRFDGRKLNSIRPIEWQKFINDFAAGKDRKEKTTRKRPRERSKDIVTKMNSYVRGMVKAAINERILFSDFTFGTKTSGVRSSGKVKVLEHHHHHH | not failed
3 | MSANLKPGSQVNTDQKPEKTKVLILGGTGEMGQWFTRFFKQKGYEVTVWGKGGKTEIASKLGVPFASDLEKAVPESDILIVSVPINVTEETIAEFAPKMKSGSLLMDFTSIKVKPVEAMKKFAPSDVEILGTHPMFGPTIPTIRGQTVILVPVKGRSEKWFPVIRELFEEGGAHVEITTAAEHDRLVSVVQGLTHFAYITIGTTIDRLDFDIKKSRKFVSPVYAIMLDFVGRILGQNPYLYALIQMENPGVLEVHDAFIRECEELSRLVRAHDEESFVKKMKSAARKYGDTAHALRKSDKLINSRITEYETILNSVGKVCGFSHFYSGKIHVGILGKAGPDEIVLTKMVSKGTSPHIKNKFVKLKLENLRMLSESELWEWRKENLEHSTRDISVLIPEGADPEVILNAINTNKQLAACEISDIYKGVNQGDHKRINRGDYKEFNRIETEKEREEAKRLGVTYRITVFGDCDANSVEADVTSLLCGLGCRIREKNLKQIEKTEPKR | failed
4 | MDIVTLKDFYASVLGKRVQETLCGQLNLCWPDLTGKRVMGFGYALPYLSALRMRAQQCLAFMPAGQGALPWPCADKVATALVFEEDLPLPDASIDCILLIHALEYTENSFETLNEIWRVLVPNGQLIVIVPNRSGLWARNACTPFGYGEPYSRQQIVRLFEKTHFVSGSIQEVVHYMPSSGSVSRFFSFFYEPVARHLLPYFGGLLICQAQKRVYQGLEHHHHHH | failed
5 | MNQLEFEQVSLYQIIVDSEKLAQEIYYQIEDEEISFYEAAYLYDVDAVRRQRCGYEGKVYRFSLPVNVATVIFRTSPKQLISPLQTEQGYHLFMVEEFIPAELEHHHHHH | failed
6 | MQQINFYRQRVAINVLAKDIANAKAIYEAAEGHAVIGVLSAQFATVEEGVPEVKRWMAEVPSISVGLGAGDPAQYYKAAMIAAHTHPAHVNQTFTGSGFAAGALAATGGEQTHINALVSPTGTPGEVVISTGVSSSQGTPARVSCEAAVRMMQDMGAHAAKFFPMGGEKSLPELYALATTAARHGMTLIEPTGGISLDNFGIILQTCLEAGVPRVMPHVYSSIIDPQTGNTRPEDIIQLMEIVKALV | failed
7 | MAATTGLETLVDQIISVITNDGRNIVGVLKGFDQATNIILDESHERVFSTKEGVQQHVLGLYIIRGDNIGVIGELDEELDASLDFSKLRAHPLKPVVH | failed
8 | MELDGKAPSHRNLNVQTWSTAEGAKVLFVEARELPMFDLRLIFAAGSSQDGNAPGVALLTNAMLNEGVAGKDVGAIAQGFEGLGADFGNGAYKDMAVASLRSLSAVDKREPALKLFAEVVGKPTFPADSLARIKNQMLAGFEYQKQNPGKLASLELMKRLYGTHPYAHASDGDAKSIPPITLAQLKAFHAKAYAAGNVVIALVGDLSRSDAEAIAAQVSAALPKGPALAKIEQPAEPKASIGHIEFPSSQTSLMLAQLGIDRDDPDYAAVSLGNQILGGGGFGTRLMSEVREKRGLTYGVYSGFTPMQARGPFMINLQTRAEMSEGTLKLVQDVFAEYLKNGPTQKELDDAKRELAGSFPLSTASNADIVGQLGAMGFYNLPLSYLEDFMRQSQELTVEQVKAAMNKHLNVDKMVIVSAGPTVAQKPLEHHHHHH | not failed
9 | MKYLLIFLLVLAIFVISVTLGAQNDQQVTFNYLLAQGEYRISTLLAVLFAAGFAIGWLICGLFWLRVRVSLARAERKIKRLENQLSPATDVAVVPHSSAAKE | failed
10 | MSDRIASEKLRSKLMSADEAAQFVNHGDKVGFSGFTGAGYPKALPTAIANRAKEAHGAGNDYAIDLFTGASTAPDCDGVLAEADAIRWRMPYASDPIMRNKINSGSMGYSDIHLSHSGQQVEEGFFGQLNVAVIEITRITEEGYIIPSSSVGNNVEWLNAAEKVILEVNSWQSEDLEGMHDIWSVPALPNRIAVPINKPGDRIGKTYIEFDTDKVVAVVETNTADRNAPFKPVDDISKKIAGNFLDFLESEVAAGRLSYDGYIMQSGVGNVPNAVMAGLLESKFENIQAYTEVIQDGMVDLIDAGKMTVASATSFSLSPEYAEKMNNEAKRYRESIILRPQQISNHPEVIRRVGLIATNGLIEADIYGNVNSTNVSGSRVMNGIGGSGDFTRNGYISSFITPSEAKGGAISAIVPFASHIDHTEHDVMVVISEYGYADLRGLAPRERVAKMIGLAHPDYRPLLEEYYARATSGDNKYMQTPHDLATAFDFHINLAKNGSMKA | not failed
11 | MNLGQWGEIMSWLCLLPISGGIVYNLLTVFTTSLFLARSLPKQDFQPGVSVLKPVRGLEKNLEANLRTIAQQNYPAYEVIYCVQDPQDPALPIVKKLQAEFGPEKIIVAVHQIEQGANGKVNNLLGGLKHAKYDILVISDSDTNLRPDYLATMVSPLGDRLVGCVTTPFKLTQAQTWYEGLELLSINADFMPSVLFAEVTGASKACLGPSIAIRRSTLTEIGGLESLADYLVEDFELGQRVWTGGLKMVLLPYVIDAGVNLDNWTNWWSHQLYWDQNTYLARPLPFLATIIIRAVPFAFLFTFCHWSEPWAWLILFITLATRYGTAAIVAQELKDGETIRYLPLLLLRDCFGLVFWALSFSQRQVLWRGITYRLTKGGKMIPASPIPKS | failed
12 | MTEPPPTPDRHPDAVESAAPGGYLEPVRAAGTVLWRDTGRGREIALVHRPRYNDWTLPKGKLDEGEHVLVAAVRETVEETGVTPRLGRRLATQRYWKSGWPKQVDWWAATPAPGTTAQFTPTAEVDAVEWLPAAEARARLTYPSDVRVLDDFLHGPAQTVPLVLLRHASAGNKNEWHDYDLLRPLDEAGRAHARAVADILAVFGPLRVVSSTAARCLETVVPYAAAHGVEIRTEHTFTVGVLRSGAQAYDPQAARQTMRALVEERQPTLVCTHGELVADLMAEAAAQTGAPARSRWALRKGAFWVVHRDAKDGSLVAVEHHGLPG | failed
13 | MDTPLGSVLYITLGCAKNEVDTDRMRSLLTAAGYEEAFDPQDADIAIVNTCSFLASATSESIETTLELANEVQDGVRSCPIVMCGCVPSRYGDDLPDELPEVAAFVKADEEDGIVAVIDGVLGVEREIAAYIPQVKRTVEGAVAYVKISDGCNRFCSFCMIPYIRGRYHSRNSESIISEVRDLVAGGVREIVLIGQDTGIWGTDFADEDVADGSPRNLAQLLRAVAEAVRPHNVWVRVLYLQPEGMTDELIDTIRDTPEVLPYIDIPVQHCDARILKAMRRSGSRQELEDLFRDLRERIPGIVIRSTAMVGFPTETDDEFRDLIDFMDTVGFDYTSVFAYSREEGSLAAKMEGQVDEEVKLERAQEAMDLAESLGFAATAAHVGERAQVIVDGIEETEDGAELIGHAWFQAPDSDGAVHLDASEASVGDILTVEFTDSFCYELIGHVVE | failed
14 | TSTMGNLQTAINDKSGTLASQNFLDADEQKRNAYNQAVSAAETILNKQTGPNTAKTAVEQALNNVNNAKHALNGTQNLNNAKQAAITAINGASDLNQKQKDALKAQANGAQRVSNAQDVQHNATELNTA | not failed
15 | MSVRDLIPWSRGGGPAPSIYRGDDMDPFLSLHRNVNRLFDEVFRGFDTPSVLGRMAPLNGTWPGVEFSETDEEIRLTAEIPGLDENDVEVMLDDGVLTLRGEKKAETEDKDRQFSERYYGRFERRFGLGREVEDDKVAATFKNGVLTVTLPKTKRAQANAKRIAINGNK | failed
16 | MGSLYTSELSRAVSESVAAALQRSFQGELRSASALGSGWSTSAELLNRNDSTERYFVKLSEPQAVSMFSAEFEGIQAMAESETVRVPAPICYGNTAERSFIVLEYLELGGIGNEAVYRDFGEKLAAMHRCSSGGRGYGWHRGNTIGSTPQLNTWMHSWADFFVENRLRYQLKLARSRQGGRLRNEDALLQRVHSVLQEHEIQHQVTPSLVHGDLWTGNVATLRNQNEVVIFDPATYYGDREVDLAMTELFGRLPRAFYQAYDASWPLPKGYREKRRVIYNLYHILNHGALFGGGYYDQAQSMIETILR | not failed
17 | MLEYKKILVPVEGSPKGELALKKAIFVAKRNHAHLDILTVIQSSRFLDVYGHMGSNMDYVEVSLRRAKEYVEDLKDQIKRKYDFEDVEVYVEAGDPKAIIATEMPEKLGTDLIMMGATGLNAFQRAMIGSVADYVTRVALMDVLLVRTELDNLPYSK | failed
18 | GHMHTPFIVALDFPSKQEVERFLRPFAGTPLFVKVGMELYYQEGPAIVAFLKEQGHAVFLDLKLHDIPNTVKQAMKGLARVGADLVNVHAAGGRRMMEAAIEGLDAGTPSGRMRPRCIAVTQLTSTDERMLHEELWISRPLVETVAHYAALAKESGLDGVVCSANEAAFIKERCGASFLAVTPGIRFADDAAHDQVRVVTPRKARALGSDYIVIGRSLTRAADPLRTYARLQHEWNGGERESTTPT | not failed
19 | MNERPATIEELICAAEARLRADPTQVKTVIEDLAHLEAQGYPAGPATVLIFDGNARVMSGDFAGARPVLEKGLALSTELEEPTLQVRALTGLAVLHVGTGAYGQALEYHMQSMQLARTLENGGLLSRSLIYVGSLYAALRNFEQAQAYHREAVEHAASAGRSTFMARLALATDEAQLGHLEEALQQRRELLVEARQTASRAEEAFVLADLAANLLQLDQRAEARQLASEALKRAEALGLQLEKGQALIILASLDIREGQFESAHQALHEVLEIGQRLASIQLLIPVHEELSRLFEQQGDFAGALRHTRVHYELKSSELTRLAERRSQVLEAELKVELLRQQAEEKERQNLALVAINEHLRETQKRLQYAATHDALTGLLVRTALEETVEDDLLLSPERRRALFMIDVDHFKQINDALGHHVGDRFLQELARRLRGALRPTDIVARQGGDEFTIYLRELDSPEEAVALGQQLLRDIAAPVQVEGHLLNVTVSIGIAVYPDDGRDVMTLEKHADLALYRAKEQRHQVCRFQKPAD | failed
20 | MALCGRPARQRSSAGQRYLAVAPARCDHWSPPSVRRVPVGRVGFYPAPVINRDAGGRASMTSQRGFWDRMAERYAARPIKDVAAYEAMLADAAGRLSPSDRVLEIGCGTGGTAIRLAPGVAQWTATDLSPEMVRIASAKPAPPNLSFVVADADLSTGEPPYDAVCAFLILHLVDDIRTTLSAIRDWLKPGGLLLSKTYCIGDMNPALRWGVIPVLQRIGWVPPIKSLMSQQLRAAIAEAGFEIEASRTFGSNSHAHYIVARKPA | failed
21 | YATGNKKNISGSVEKITELGMNKDQITNPLEAIRGRVPGLTIQKGTNGPAALDAVRLRGTTSLTSGNDPLIIVDGVFGDLSMLTSIYPTDIESFTILKDASETAQYGSRGASGVIEITTKKGIRG | failed
22 | MGFMIEHWDFSTPMATQETTTAEHIQPNHWYHCERLHPDIRSWLEDNHVPRATVDHLLADESRPSFHPLDDDNFMLILRGINMNENASPEDMLSIRILYFQGALISTRKIPSRAIMEIRQALAEHKGPKSLASLLNQIIEGLNGKIDLYLDTIEETLNEFDVNDESTYNHIAAQKALISIKRFIRPQQYAIRDLIESESELVTSRPHQYRFAHNNITRINETIEFYLGEVALFQDEIKHNRDEKTNKNSYLFTLVATIFLPTSFLTGLL | not failed
23 | MGFTQNSVYFLNVSEALATPQDKLHTVRLFGTVAADGLTMLDGAPGVRFRLEDKDNTSKTVWVLYKGAVPDTFKPGVEVIIEGGLAPGEDTFKARTLMTKCPLEHHHHHH | not failed
24 | MSANSHFHSTHESHYQCAVCSSIDANPNSLAVNYQCLADSSVVGEFHVLPRHQGYTDLLHGGIASSLLDGAMTHCLLFRDIQALTAQLDVRYHAPIELDEHVTITAHCEGERRGIYQLVAQLLVNNEVRVTAKGKFIRPKEA | failed
